The values below come from article PMC2743687 (Nature structural & molecular biology, 2009).

The experiment addresses full-length Brr2, purified, Protein A tag cleaved off (S. cerevisiae, UniProt P32639 1-2163). The experiment in a line: native gel or EMSA. Background: In EMSA bound probe runs differently from free probe, usually more slowly.

full-length Brr2, purified, Protein A tag cleaved off, sequence (P32639 whole entry): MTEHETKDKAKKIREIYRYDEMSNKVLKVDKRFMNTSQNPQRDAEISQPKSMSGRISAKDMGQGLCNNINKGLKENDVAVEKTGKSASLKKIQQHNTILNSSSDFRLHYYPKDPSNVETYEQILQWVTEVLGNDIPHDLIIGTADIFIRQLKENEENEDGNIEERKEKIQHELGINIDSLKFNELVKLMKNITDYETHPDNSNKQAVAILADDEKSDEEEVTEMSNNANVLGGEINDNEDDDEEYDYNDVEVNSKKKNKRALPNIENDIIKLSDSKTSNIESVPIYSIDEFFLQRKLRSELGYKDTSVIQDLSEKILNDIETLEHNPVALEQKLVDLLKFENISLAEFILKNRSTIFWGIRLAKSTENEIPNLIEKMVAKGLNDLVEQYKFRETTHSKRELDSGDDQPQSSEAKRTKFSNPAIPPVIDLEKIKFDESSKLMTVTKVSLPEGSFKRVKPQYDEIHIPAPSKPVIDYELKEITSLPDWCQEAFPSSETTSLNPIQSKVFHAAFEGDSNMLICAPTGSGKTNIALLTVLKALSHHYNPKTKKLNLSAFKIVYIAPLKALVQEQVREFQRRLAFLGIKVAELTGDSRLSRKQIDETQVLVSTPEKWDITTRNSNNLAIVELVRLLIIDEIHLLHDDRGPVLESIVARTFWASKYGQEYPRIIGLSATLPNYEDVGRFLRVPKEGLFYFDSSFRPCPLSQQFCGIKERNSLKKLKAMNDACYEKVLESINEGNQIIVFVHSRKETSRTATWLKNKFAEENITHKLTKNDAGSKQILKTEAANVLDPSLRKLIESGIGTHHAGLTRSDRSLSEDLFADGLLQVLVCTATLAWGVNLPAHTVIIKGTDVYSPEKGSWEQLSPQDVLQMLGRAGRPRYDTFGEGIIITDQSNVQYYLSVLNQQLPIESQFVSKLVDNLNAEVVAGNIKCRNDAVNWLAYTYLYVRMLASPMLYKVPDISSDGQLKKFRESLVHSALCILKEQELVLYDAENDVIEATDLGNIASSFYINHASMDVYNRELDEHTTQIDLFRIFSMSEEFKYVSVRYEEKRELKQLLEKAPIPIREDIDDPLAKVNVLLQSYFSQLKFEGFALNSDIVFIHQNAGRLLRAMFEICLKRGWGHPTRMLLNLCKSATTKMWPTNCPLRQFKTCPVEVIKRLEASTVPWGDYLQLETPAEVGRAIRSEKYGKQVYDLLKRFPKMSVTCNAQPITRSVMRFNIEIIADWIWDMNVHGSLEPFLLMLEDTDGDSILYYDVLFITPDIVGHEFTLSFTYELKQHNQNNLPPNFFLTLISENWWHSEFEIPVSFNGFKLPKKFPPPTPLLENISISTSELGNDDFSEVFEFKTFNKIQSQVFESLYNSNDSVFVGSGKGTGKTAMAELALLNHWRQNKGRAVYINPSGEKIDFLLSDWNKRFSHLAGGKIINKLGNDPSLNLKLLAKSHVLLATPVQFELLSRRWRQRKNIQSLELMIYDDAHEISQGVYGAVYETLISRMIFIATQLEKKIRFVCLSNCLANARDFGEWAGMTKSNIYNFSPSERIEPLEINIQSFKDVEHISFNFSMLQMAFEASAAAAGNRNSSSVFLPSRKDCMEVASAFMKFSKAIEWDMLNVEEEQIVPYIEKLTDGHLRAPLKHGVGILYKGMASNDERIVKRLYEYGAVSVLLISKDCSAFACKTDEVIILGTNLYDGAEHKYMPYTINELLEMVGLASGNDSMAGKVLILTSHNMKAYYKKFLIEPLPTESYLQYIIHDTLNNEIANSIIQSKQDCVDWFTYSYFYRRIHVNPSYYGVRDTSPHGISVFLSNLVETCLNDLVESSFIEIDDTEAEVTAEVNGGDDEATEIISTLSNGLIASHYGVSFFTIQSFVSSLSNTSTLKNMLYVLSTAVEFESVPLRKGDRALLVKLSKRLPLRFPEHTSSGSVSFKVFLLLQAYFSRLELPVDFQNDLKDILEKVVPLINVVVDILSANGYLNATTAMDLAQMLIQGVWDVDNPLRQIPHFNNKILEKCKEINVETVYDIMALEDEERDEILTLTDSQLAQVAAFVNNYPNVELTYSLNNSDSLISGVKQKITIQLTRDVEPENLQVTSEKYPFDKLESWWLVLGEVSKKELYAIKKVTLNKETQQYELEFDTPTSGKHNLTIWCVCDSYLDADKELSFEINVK

B1: C-terminal region of Prp8 (Prp8-CTR, residues 1822–2395) (domain or fragment)
chain: GLQIYQSSVQEPFLNSSNYAELFNNDIKLFVDDTNVYRVTVHKTFEGNVATKAINGCIFTLNPKTGHLFLKIIHTSVWAGQKRLSQLAKWKTAEEVSALVRSLPKEEQPKQIIVTRKAMLDPLEVHMLDFPNIAIRPTELRLPFSAAMSIDKLSDVVMKATEPQMVLFNIYDDWLDRISSYTAFSRLTLLLRALKTNEESAKMILLSDPTITIKSYHLWPSFTDEQWITIESQMRDLILTEYGRKYNVNISALTQTEIKDIILGQNIKAPSVKRQKMAELEAARSEKQNDEEAAGASTVMKTKTINAQGEEIVVVASADYESQTFSSKNEWRKSAIANTLLYLRLKNIYVSADDFVEEQNVYVLPKNLLKKFIEISDVKIQVAAFIYGMSAKDHPKVKEIKTVVLVPQLGHVGSVQISNIPDIGDLPDTEGLELLGWIHTQTEELKFMAASEVATHSKLFADKKRDCIDISIFSTPGSVSLSAYNLTDEGYQWGEENKDIMNVLSEGFEPTFSTHAQLLLSDRITGNFIIPSGNVWNYTFMGTAFNQEGDYNFKYGIPLEFYNEMHRPVHFLQF
As to B1, the binding result was “binds”.
